This note sets out measurements from patent US20250170175A1 (OSLO UNIVERSITETSSYKEHUS HF, published 2025).

In assay [1] the target is HLA-A2 presenting TdT peptide-3 (…) on target cells (human). The assay can be described thus: cell-based or functional assay.
The target of assay [2] is T1, human terminal deoxynucleotidyl transferase (TdT) peptide on HLA-A*02:01 (human).
T1 peptide: ALYDKTKRIFL
The assay can be described thus: multimer staining.

For assay [3], the target named is T2, human terminal deoxynucleotidyl transferase (TdT) peptide on HLA-A*02:01 (human).
T2 peptide: ALYDKTKRI
The assay can be described thus: cytokine release.

The target in assay [4] is HLA-A2 presenting TdT peptide-1 (…) on target cells (human). Description: cell-based or functional assay.
The target in assay [5] is T2, human terminal deoxynucleotidyl …. The assay can be described thus: multimer staining.

B1: T3 TCR (TCR, V domains shown)
V domain 1: SQQGEEDPQALSIQEGENATMNCSYKTSINNLQWYRQNSGRGLVHLILIRSNEREKHSGRLRVTLDTSKKSSSLLITASRAADTASYFCATDAGAYSGGGADGLTFGKGTHLIIQP
V domain 2: EAQVTQNPRYLITVTGKKLTVTCSQNMNHEYMSWYRQDPGLGLRQIYYSMNVEVTDKGDVPEGYKVSRKEKRNFPLILESPSPNQTSLYFCASSLSSSYNEQFFGPGTRLTVLE
Consider B1, for which, in assay [1], the “EC50 of activation of T3 cells following co-incubation with peptide-pulsed T2 lymphoblast cells” value amounted to 1.2 nM.

B2: T3 TCR (TCR, V domains shown)
Valpha: SQQGEEDPQALSIQEGENATMNCSYKTSINNLQWYRQNSGRGLVHLILIRSNEREKHSGRLRVTLDTSKKSSSLLITASRAADTASYFCATDAGAYSGGGADGLTFGKGTHLIIQP
Vbeta: EAQVTQNPRYLITVTGKKLTVTCSQNMNHEYMSWYRQDPGLGLRQIYYSMNVEVTDKGDVPEGYKVSRKEKRNFPLILESPSPNQTSLYFCASSLSSSYNEQFFGPGTRLTVL
Take B2: the binding result in assay [2] is on record as “recognises”; in assay [3] it was “no recognition”.

B3: T1 TCR (TCR, V domains shown)
V domain 1: EDQVTQSPEALRLQEGESSSLNCSYTVSGLRGLFWYRQDPGKGPEFLFTLYSAGEEKEKERLKATLTKKESFLHITAPKPEDSATYLCAVQASSNSGYALNFGKGTSLLVTP
V domain 2: SAVISQKPSRDICQRGTSLTIQCQVDSQVTMMFWYRQQPGQSLTLIATANQGSEATYESGFVIDKFPISRPNLTFSTLTVSNMSPEDSSIYLCSVEPGYADTQYFGPGTRLTVLE
B3: the “EC50 of activation of T1 cells following co-incubation with peptide-pulsed T2 lymphoblast cells” value in assay [4] is 5.8 nM.

B4: T1 TCR (TCR, V domains shown)
Valpha: EDQVTQSPEALRLQEGESSSLNCSYTVSGLRGLFWYRQDPGKGPEFLFTLYSAGEEKEKERLKATLTKKESFLHITAPKPEDSATYLCAVQASSNSGYALNFGKGTSLLVTP
Vbeta: SAVISQKPSRDICQRGTSLTIQCQVDSQVTMMFWYRQQPGQSLTLIATANQGSEATYESGFVIDKFPISRPNLTFSTLTVSNMSPEDSSIYLCSVEPGYADTQYFGPGTRLTVL
In the case of B4, the binding result in assay [5] was “recognises”.
